Laboratory results from PMC6477179 (2019).

Biological target: GST-p62 FIR (aa 326-380) (human, UniProt Q13501 326-380)
Test: SPR

B1: FIP200 CTR (aa 1458-1594) (domain or fragment)
chain: RIMLLERTLQLKEEENKRLNQRLMSQSMSSVSSRHSEKIAIRDFQVGDLVLIILDERHDNYVLFTVSPTLYFLHSESLPALDLKPGEGASGASRRPWVLGKVMEKEYCQAKKAQNRFKVPLGTKFYRVKAVSWNKKV
  Kd: 5.1 µM
